Our source for the Kd values is article doi:10.1101/2023.05.23.541938.

The target of this assay is TgPKS2 thioester reductase domain (TgTR) (Toxoplasma gondii). As to the kind of experiment: ITC. A general note: ITC needs no label: the signal is the heat of the interaction.

What is called Kd is a measure of binding affinity in units of concentration. A lower Kd goes with tighter binding. The substance holo-TgACP4 (domain or fragment) returned a Kd of 5.75 µM.
